Laboratory results taken from the DeepSol protein solubility set.

Assay: soluble on expression in E. coli; label from the status in PepcDB or PDB records

Soluble on expression in E. coli, not soluble:
MGSDKIHHHHHHMAKDIHSKAGTTLPPYFNIDPDAAMAELDQPTDTARFAEIAEGCARGRADLASRGLNEEGSKNLRLFSTWEITRYLIPVAQAHFRRVLKANPDLPQGRSETEGGAKWFTLDEVLRLRAFFAAQGSKAKNYLPYRPEGLPAKLVAVANFKGGVGKTSTAAHLAMSAALDGYKVLVIDLDSQGSMTSIFGGKIEDEWQTAFPLLARHYGEHLRVENQRRLDRGDAPQPLDESLTAAMEMTAKDVIQPTHWPNIDLIGAQLNLYWAEFQIPVWRMAARSWKLWDALTDRLEADGVLDQYDVVFIDTPPALGYLTINGLSAADILLVPMGASFLEFDSTGRFFDMLHSTFASIEEGENLAARALGRPEIGFEWDAVRAVITRYDGAQQGELAGLVQAYMGPTLSPHRQDFTALIGQAGEQVNGIYEADYRDFNRETYARGRETFDETYAAFKRLLNGVWRREELAVQEERAAS
MGSDKIHHHHHHMAKDITLRQLRYFIAAARAGQFSMAATNEHVSQSAITNAVIALEQALGTKLFDRGAHGVTMTVDGHDFYHHARHVLDSVRDAMHKPRAGARATSGTVRIAASYAVLGYFLPELLARFRASFPAIELDLRDMDRAVIENAVLDGTIDLGVTLVSNTPRLDAFEHRILIRSRRQLWTAPSHPLAHAASMSLADIAMHPYILLTVDEGEASTTRYWQAKGMQPNIAFRTGSMEAVRGLVANGFGVTVLSDMLFRAWSLDGTRIDARPVVDSIPPMEVGLIWRPGAALAPAAQQLRHFLIQVNSGEAD
MGSDKIHHHHHHMAKFIMVVGTSSNSGKTVLVSGICRMLSNKGYKVAPFKSQNMSLNSRVSVEDGEIAVAQYTQAMAARAEPSVHFNPILLKPKGNFVSQVIVHGNPYEDKDYNEYRSKKDDFLVKIKESIDYLDKNYDYVVIEGAGSCCEINLLNDDIANLKVAEIAGADAILVSDIDRGGVFASIYGTVQLLPENWKKLLKGFVINKFRGNIDVLKDGFEKIEELTNIPVIGTIPYDETLVLPEEDSQALDGKRVFGNLKSPIEVNVVKFSKIANFTDVDPFSSDCLMKYIDFNENITGDILILPGTRCSTVEMDLMKKYGMDKKILEFVENGGIVLGICGGYQALGKMLFDEDFSEGDVGTISGLGLFDMETTFGNKKAIKNSTGKISIFNQNFDVSGYELHEGYSVSNETPLISLSKGFGNCGDSYDGSFKMIGDSYIFGTYFHGILENFEFRNYLVNLARSKKNLSKIEDDTYAELFNENMDKLSKIIEENLDFSKIIG
MGSDKIHHHHHHMAKIHMVLQGKGGVGKSMIAATIAQYKAGKGQKPLCIDTDPVNATFEGYKALNVRRLNIMDGDEINTRNFDALVEMIASAEGDVIIDNGASSFVPLSHYLISNQVPALLQDMGHELVVHTVVTGGQALVDTVSGFAQLASQFPAECLFVVWLNPYWGPIEHEGKGFEQLKAYTTNKGRVSAIIQIPALKEETYGRDFAEMLQDRRTFDEALADSALTIMTRQRLKIVKTQLFAQLENAAVL
MGSDKIHHHHHHMAKVVTLTATNGETIQFVEEVKAQGGMKDVMFSPNRDYVVAFLRDPADNETKERLEMITGQYRKRIFNQEGGEYLKKLYCWPTAVVEYNGKLGVVSPFYRDCFFFQYGSRNSDMLGIQGKEKDGKWFASANNRNKFLAPEELGDWMLHLKVCLMLARAVRRMHMAGLSHSDLGYKNCLIDPTTGQACLIDIDGLVVPGKHPPTVVGTPDFIAPEVVATSHLDVKDPNRKLPSRTTDLHALAVLIYMYLLYRHPLRGDKVFDPNDPQRDEELGMGKQALFVEHPTDRSNRIKTENIRPSEHPWKDTEKMPYTLTGTYLSDLFKRAFIDGLHNPQARPTADEWEQALVKTVDLLQPCSNASCEQKWYAFDNSKHPKCPFCGTAHHGKLPVLNLYSGTPDGKFRPDNHRIMVYSNQSLFKWHADNRVFPNEKLRSEDAKRVGYFVQHNGNWWLVNEALPEIYDVKAKQAIPIGGKVKLDDGGQILLQKGIGGRLLMVQMAG
MGSDKIHHHHHHMALMFPRLARNFVKNGYFPTDEPTLERALNALMPSDGSMCILDPCAGEGVAIAEAAHALGREQVKAFAVEFDAERARHARGLVDHCLHADLMDAMISKQSFGLLWLNPPYGDLSKDVNGNIGYQGQGRARLEKLFYQRSLSLLQYGGVLVFIVPGYVLDAELVGWLTRHYTDLRIYRAVETQFKQVVIFGRRVRQREQAPDGVKAVRNLLLQVGLGEVEAEELPSDWPFLPYIVPASPAEPEHFFRVTMEPEQFADEVGRLQGLWPSLDTHLGAAQQSLRPPARALSHWHLALALAAGAISGVVRSKTGRVLVVKGDTHKDKTLQREFTEREDGSIAETRILTDKFVPVIRAWDMTPSSATRGEVLTIR
MGSDKIHHHHHHMALPKKLKALNLFNNGESYLGQVVEVKLPTLSRKMEEYRGGGMNGPVDIDFGQEKIELEWKCGGMMRSVLNQYGATTHNAVQLRFAGSYQRDDSGAVDAVEFVVRGRHKEIDPGTGKSGDDTEFSVKTSASYYKLMINGSTVIEIDLMNMIEIVNGVDLLAPHRRAIGA
MGSDKIHHHHHHMALSLRACILLLKEHHLLKSAAIQNTEDVDMTGIAYDSRKVSGPTLFFCKGDKFRPIYLSMAKDNGARTYVAEKPYVEGNGLNALIVRNITKAMAILSAAFFDYPQDDLFVIAYTGTKGKTTASYFTEAILNEARPRHIALFSTIDTVVGPEPDQRFKSNLTTPESLDLFRDMREAVENGMTHLVMEVSSQAYLRNRVFGLTYDVGFFLNITPDHIGPNEHPTFANYLHNKLQLLVNARKVVINAETEHFDQVYAAATTTTYPESIYLFASAGFRPKRDDIDIDFRFDSQEADVAESRFTLVPVTEKAAALNIGGHYSLALIGDFNESNATAAIIGAGLAGVDASAAVPGIAKVKIPGRMEHTKVAGHGAVYVDYAHNYASMKALLSFLKHAYKDPRLLVVVGSPGDKGVSRRPGFAKVLTEFATEAFLTTDDPGYEDPANIIEEIDSKIDHSKVKVHKVLDRKKAIAEAISDSGPNDIVVVAGKGADPYQKVRGVNTPWPTDMAVVKQVAKSLQEG
MGSDKIHHHHHHMALVKLQPGDITSDDPIPFPIYSADGKLLLQEGQSVTTSSLLDRLYDLGYRKSTEKVRSGPFNPVSHAPQVNTELLISSAHAHEKALPKPEAISGRSMNVLPTLKHRVEFFRLTPAGGSEAIHVDLVGVVHEKTIIVRSTGPDESVVLDPEHSYQAKLFTGSHLSTFSTRLTPDGVGPFGCYYLEYPDNLIHATVRKHRRVTTSFPAKLQSGEYQRASVDVTVSNISLIGAGVSSSVDFLTVGQSARLSMNLSVAQRVRPVEVYVEVRNRREKDGGFFYGLEFVRVSDEVRLEIKDFVLDSLATL
MGSDKIHHHHHHMANYPGIDTELLRTFVAIADHGGFTRAGEVVNRTQSAVSMQMKRLEEDVVQRQLFQREGRTLNLTAEGQVLLGYARRILKLHSEVFNTLREPHMVGVVKIGSPDDYVMRFLPGILSQFAQAYPLVQVEVHCEPSDLLLQRQDLDLTIVTRKPGTEIGTLLRHERLVWMEAIGFAPHEQKPMPLAMFNTHCFCRDWACNALDSVEREYRIAYTSSSMAAITAVVSAGLAVTAQFQSLATPELRILGDAEHLPHLPTASIVLLRNPKTPSPITECMADYIIDGFKP
MGSDKIHHHHHHMAQIKPISGAEDRVLLAEALPLVSPFTLNVFPTNACNFKCSYCAQSLGAEALAATYGMDRGFMSLETMELIVEQSKAFAPYKLLSFMGHGEPLLNRDLPKMISLAARAGIAQRIEIITNASMLTHEYADELIDSGLTNLRVSLQGLDMESYRKICGVALDFDRFMERLVYFYTHKKKDMGLFVKIMDVSLPIGGAKEFYKLFNNICDRMYVENVQPVYHAVDVHSSNGSDLTRYDRYGNAHPPRTVCPLAFFSLAVWPNGDVQPCDAIYKPCVLGNVHNTNLREMWDSELLKQFRIRHLRGEKEIITGCSNCCAPDDVSHPLDALDDRKDEILCRLFG
MGSDKIHHHHHHMARKPIDRPVHIPPLQALRALEAAARHRSFSRAAEELALTHSAISHHMRALEDKLGTKLFQRTGSQMAPTSAGARLAEQIRAALDDIESAVREASSSTTTPVVRLQVSVMADLANAWLIRRLPSLHAQVPSLDLHLRLHAEITPPDPYSVDVGIWHQRIDLPGFECHNLIEDHVIAVASPALLARYPGFTPADVPRMPMLRFALRPWRDWLEAAGLPDAEPERGPIFQDAGLMLQSAVAGLGVATARAQLAHDYLESGQLVQVGSTRIPSSLHYWVTWREGNPREKAIQQFHAWLQEQVRRETPTAEPTTTDDAMK
MGSDKIHHHHHHMARKPRIHYPGALYHVILRGNARQDIFHDPEDRYRFYLFLQEGAERFGHRILAFCLMTNHVHLAVQVGEVPLSRFMQNITFRYTRWQNWRMGKTGHLFQGRYKSFLVDGDAYLQELVAYIHLNPVRAGMTTKLGSYTWSSHRAYLGKEIIPWLNTETVLATYSSDTSTARKQYATFISDRVKEGHREEFHGKGSSDSRVIGDDHFVEAILERADRLPLRRPGLDMVVEVIKRLYRLDEEELASPGQKRWAAEARGVAAWAVQEFSSATLTDLAKRFGRDVSSMSAAVRRLEQRRKIDQGIAERLERVGRELEGAIFQA
MGSDKIHHHHHHMASIALNNLTYTYPQASTPILDRVNLTLPRQSFILLTGPSGTGKSTLLKLIAGLLPLTPDDGTITFDGQALTASTANQRAQHVAMMFQNPNQQFAMDTVENELIFALENLQVPRDQIPARLLSALDFVGIRNLQSRLLNHLSGGEKQKVALAIIVAMDSDVILLDEPFASVDPTARAVLLDRLVELRNQHGKTIILADHDLSGYEQLVDQVVQIKDQHLQLIDRTTWSELFSAFTEQPQRSWSAPQRVERPCFQLDHVTLQAGDRQLLVPTTRQLLAQHNTLITGPNGSGKSTLFEALVRLHPYTGEIRYEGTPIDKLKRKRYARHVALLFQDAETQFLNITVAEELAQSKRYAYGDYFTADRIQTALVQLNLSGRDEQVIYTLSEGQKKKLQILLMLIMQSPVLLMDEPLKGLDLHSINALVALLQTTQAATKQTLIIISHQLTGLMPLIDYQLHFENHHLDWVVRS
MGSDKIHHHHHHMASKEEQYAAFYQFLETLDCYLTTTNALENEVAQFKENPHREIAGFMLASSETIDVPKGFIRMLYCLEQDGYAYLDQQRCSFSAGQVMIVNEATSVSYQGQGMSMIIFYFKKHYFLDTLLNQLAEEPVMYRFFTEIASSEFENIPRYFVFASQPNSDVHVYSLLLLKQIVKMAYFNNKVTKAAFVLLVVELGQLPREALKMQDNYLSNHQRVEVILAYIEQQIAHVTLAEVAAKFHFHPNYLSNFLKEKTNKTFTEIVLAYRIQLAKNYLKQTDLSIQTIVERIGYQDKAFFYKRFKEEMGMTPKQYRQKEGMADVRRSL
MGSDKIHHHHHHMASYHLNAKMAQDIVSRTMQIIDSNINVMDARGKIIGSGDQERLGELHEGALLALSQGRVVDIDDAVARHLHGVRPGINLPLRIDGEIVGVIGLTGNPSQLRQYGELVCMTAEMMLEQARLLHMLAQDSRLREELVLNLVRTDDLSPALMEWAQRLGIDMNKPRVAAVIEVDSGQLGVDSAMAELQQLQTLLTTPERDNLIAIVSLTEMVVLKPALNSHGRWDAEEHRRRVDTLMSRMAESSRLRVRLALGNYFAGPGSIARSYRTARTTMSVGKQRMPAQRCYYYQDLMLPVLLDSLRGGWQANELVRPLSKLKAMDGNGLLRRTLGAWFRNNVQPGATAKALFIHRNTLEYRLNRISELTGLDLGNFDDRLLLYVALQLDEEE
MGSDKIHHHHHHMATIKDIAARLGVSISTVSKGLNGASDISEELRQTVLDTAVEMGYSTKRSRKVENRKLALFIENMNYESIDEFGYDVVLGFKQNAFKHKWDVDIIPVTPQLQAEEKYDTYILKNGYCGAFLVGFALHDEWMQQLKNTTMPTVLFDNYIENNPNVAYVGTDSYEGIDMAVKHLHNLGHKKIAFINGSLFSLVSDQRQEAFENSMRDAGLEIYPELMGHGYYIPETAQYYVSNFIAAGATAILCGSDTIAKGVISECQLHGFNVPNDISVVGFDDVKFAAALTPPLTTIRQERNDLGRCAYIILNSLIHHIPISRTQLRPMLIERESTARVSTAHAAEE
